Assays:
Assay in all cases: purified protein
[1] = system: T1, Nc1ccccc1C(=O)O; format: biochemical, Arabidopsis thaliana; conditions: 1 mM PR-PPi, 45 mM imidazole HCl pH 7.4, 30 °C, anthranilate 0-0.75 mM
T1 construct: codon-optimized gene in pET28a, His-tagged, E. coli BL21 (DE3), Ni-NTA

[2] = system: T2, Nc1c(O)cccc1C(=O)O; format: biochemical, Arabidopsis thaliana; conditions: 1 mM PR-PPi, 45 mM imidazole HCl pH 7.4, 30 °C, 3-HAA 0-0.5 mM
T2 construct: codon-optimized gene in pET28a, His-tagged, E. coli BL21 (DE3), Ni-NTA

[3] = system: Nc1ccccc1C(=O)O; format: biochemical, Juglans regia; conditions: 1 mM PR-PPi, 45 mM imidazole HCl pH 7.4, 30 °C, anthranilate 0-0.75 mM
[4] = system: T2, Nc1c(O)cccc1C(=O)O; format: biochemical, Juglans regia; conditions: 1 mM PR-PPi, 45 mM imidazole HCl pH 7.4, 30 °C, 3-HAA 0-0.5 mM
[5] = system: Nc1ccccc1C(=O)O; format: biochemical, Physcomitrium patens; conditions: 1 mM PR-PPi, 45 mM imidazole HCl pH 7.4, 30 °C, anthranilate 0-0.75 mM
[6] = system: T1, Nc1ccccc1C(=O)O; format: biochemical, Selaginella moellendorffii; conditions: 1 mM PR-PPi, 45 mM imidazole HCl pH 7.4, 30 °C, anthranilate 0-0.75 mM
[7] = system: T2, Nc1c(O)cccc1C(=O)O; format: biochemical, Selaginella moellendorffii; conditions: 1 mM PR-PPi, 45 mM imidazole HCl pH 7.4, 30 °C, 3-HAA 0-0.5 mM

For AtPAT1 (Arabidopsis thaliana), the Km [1] was 20.6 ± 2.0 µM, the kcat [1] was 0.132 ± 0.00167 s⁻¹ and the kcat/Km [1] was 6360 M⁻¹ s⁻¹. It also gave a Km [2] of 19.63 ± 2.3 µM, a kcat [2] of 0.0483 ± 0.00117 s⁻¹ and a kcat/Km [2] of 2470 M⁻¹ s⁻¹.
JrPAT1 (Juglans regia) showed a Km [3] of 38.7 ± 3.5 µM, a kcat [3] of 0.055 ± 0.00167 s⁻¹ and a kcat/Km [3] of 1420 M⁻¹ s⁻¹. For the same substance, the Km [4] was 28.23 ± 4.2 µM, the kcat [4] was 0.0483 ± 0.00167 s⁻¹ and the kcat/Km [4] was 1690 M⁻¹ s⁻¹.
PpPAT1 (Physcomitrium patens) showed a Km [5] of 31.8 ± 4.4 µM, a kcat [5] of 0.0567 ± 0.00167 s⁻¹ and a kcat/Km [5] of 1790 M⁻¹ s⁻¹.
SmPAT1 (Selaginella moellendorffii) showed a Km [6] of 189 ± 35 µM, a kcat [6] of 0.085 ± 0.005 s⁻¹ and a kcat/Km [6] of 450 M⁻¹ s⁻¹. The Km [7] was 22.66 ± 1.5 µM, the kcat [7] was 0.0533 ± 0.000833 s⁻¹ and the kcat/Km [7] was 2360 M⁻¹ s⁻¹.
